Experimental data taken from PMC4598028, “pH-Dependent Assembly and Segregation of the Coiled-Coil Segments of Yeast Putative Cargo Receptors Emp46p and Emp47p” (PLoS ONE, 2015).

What was measured:
[1] = molecular target: E303A mutant of Emp46p^CC (yeast) (UniProt Q12396); assay: cross-linking; dimethyl suberimidate (DMS) 0.1 mg/mL, 60 or 120 min, room temperature, 100 mM carbonate/bicarbonate buffer pH 8.9; SDS-PAGE
[2] = molecular target: coiled-coil segment of Emp47p, Emp47p^CC (254–374) (yeast) (UniProt P43555); assay: native MS; nanoflow electrospray under non-denaturing conditions, 200 mM ammonium acetate pH 7.4; single proteins 43 uM; mixtures of Emp47p^CC 33 uM with 17, 33 and 67 uM Emp46p^CC, 25 °C, 30 min
[3] = molecular target: the molecule itself; assay: native MS; mass spectra under non-denaturing conditions measured at pH 5.0; Emp47p^CC fixed, Emp46p^CC varied
[4] = molecular target: the molecule itself; assay: SEC; Superose 12 gel filtration; Emp47p^CC 70 uM alone or with Emp46p^CC or its E303A mutant; 10 mM phosphate buffer pH 7.4, 150 mM NaCl

| Molecule | stoichiometry N [1] | stoichiometry N (Emp46p^CC per Emp47p^CC (printed as 1:3)) [2] | stoichiometry N [3] | stoichiometry N [4] |
| --- | --- | --- | --- | --- |
| E303A mutant of Emp46p^CC (from UniProt Q12396 252-355) (domain or fragment) | 2 | 0.33 |  |  |
| coiled-coil segment of Emp47p, Emp47p^CC (254–374) (domain or fragment, yeast, UniProt P43555 282-402, looked up, Emp47p, yeast putative cargo receptor, coiled-coil segment, residues 254-374 by the methods (the results print 271–274); in mixtures with Emp46p^CC it forms 1:3 and 2:2 heterotetramers; the results print (271–274); also called Emp47^CC; source: E. coli BL21-CodonPlus, purified (Chelating Sepharose, tag cleaved, gel filtration)) GKEKLIEKTAFDADKDKITNYELYKKLDRVEGKILANDINALETKLNDVIKVQQELLSFMTTITKQLSSKPPANNEKGTSTDDAIAEDKENFKDFLSINQKLEKVLVEQEKYREATKRHGQ |  |  | 3 | 4 |
| coiled-coil segment of Emp46p, Emp46p^CC (252–355) (domain or fragment, yeast, UniProt Q12396 298-401, looked up, Emp46p, yeast putative cargo receptor, coiled-coil segment, residues 252-355; Monomer-dimer equilibrium by SV-AUC and native MS; also called wild-type Emp46p^CC; source: E. coli BL21-CodonPlus, purified (Chelating Sepharose, tag cleaved, gel filtration)) EESFREKMPFSDKEESITSNELFEKMNKLEGKIMANDIDPLLRKMNKIVENERELIQRLRPLLDLKKTAISDDSFQDFLSMNANLDRLIKEQEKIRQDAKLYGK |  |  | 2 |  |
